Residue numbers refer to the chain shown, from its start. Names may count otherwise.
B1: dBBDu_186 / dBBDu_L096 (antibody, human IgG1, V domains shown)
VH: QVQLVESGGGLVQPGRSLRLSCAASGFTFSNAWMHWVRQAPGKGLEWVAQIKDRSNQYATYYAPSVKGRFTISRDDSKNSIYLQMNSLKTEDTAVYYCHYVHYAQASTVLPAFGVDAWGQGTTVTVSS
VL: DIVMTQSPLSLPVTPGEPASISCRTSQELVHINRYIFLHWYQQKPGQAPRLLIYKVYNRFQGVPDRFSGSGSGTDFTLKISRVEAEDVGVYYCAQGTSVPYTFGQGTKLEIK
notes: Tested as IgG (human IgG1 constant region, kappa light chain); also called dBBDu186/L096
B2: dBBDu_167 / dBBDu_L091 (antibody, human IgG1, V domains shown)
VH: B1 VH with R54K, S55G, Q57L, T60A, Q105S, S107G, T108G, V109G, A112G
VL: DIVMTQSPLSLPVTPGEPASISCSASESLLHNNRHTYLHWYQQKPGQAPRLLIYRVSNRFNGVPDRFSGSGSGTDFTLKISRVEAEDVGVYYCGQGTQVPFTFGQGTKLEIK
notes: Tested as IgG (human IgG1 constant region, kappa light chain); also called dBBDu167/L091
B3: dBBDu_189 / dBBDu_L116 (antibody, human IgG1, V domains shown)
VH: B1 VH with V48I, T108S, V109L, A112S
VL: B1 VL with R24S, T25S, I32A, Y35Q, F37Y, Y57A, Q61P, S98Q, Y101F
notes: Tested as IgG (human IgG1 constant region, kappa light chain); also called dBBDu189/L116
B4: dBBDu_183 / dBBDu_L063 (antibody, V domains shown)
VH: B1 VH with R54K, S55G, Q57A, T60A, Q105S
VL: B1 VL with T25S, I32T, Y35H, I36T, F37Y, Y57S, Q61P, S98Q, Y101F
notes: Tested as IgG (Fab genes converted into IgG format, human IgG1 constant region, kappa light chain); also called dBBDu183/L063; dBBDu_183/L063
B5: dBBDu_189 / dBBDu_L112 (antibody, human IgG1, V domains shown)
VH: B1 VH with V48I, T108S, V109L, A112S
VL: B1 VL with R24T, T25S, S26D, I32M, Y35H, I36T, F37Y, Q61P, Y101F
notes: Tested as IgG (human IgG1 constant region, kappa light chain); also called dBBDu189/L112
B6: dBBDu_183 / dBBDu_L067 (antibody, human IgG1, V domains shown)
VH: B1 VH with R54K, S55G, Q57A, T60A, Q105S
VL: B2 VL with S24Q, A25S, L30V, N32V, R55K, S57Y, N61P, G94A, Q98S
notes: Tested as IgG (human IgG1 constant region, kappa light chain); also called dBBDu183/L067
B7: dBBDu_183 / dBBDu_L072 (antibody, human IgG1, V domains shown)
VH: B1 VH with R54K, S55G, Q57A, T60A, Q105S
VL: B1 VL with R24Q, T25A, I32M, Y35N, I36T, F37Y, Y57S, Q61P, Y101F
notes: Tested as IgG (human IgG1 constant region, kappa light chain); also called dBBDu183/L072; H183L072
B8: GLS3000 V94P one-amino acid altered one-arm antibody (CE115HA000-pE22Hh / Kn010G3 / GLS3000 V94P-kappa) (antibody, human IgG1, kappa, L234A L235A, N297A, name in Kabat numbering)
heavy: QVQLVESGGGVVQPGRSLRLSCAASGFTFSNAWMHWVRQAPGKGLEWVAQIKAKSNNYATYYAESVKGRFTISRDDSKNSLYLQMNSLKTEDTAVYYCRYVHYGAYYGVDAWGQGTTVTVSSASTKGPSVFPLAPSSKSTSGGTAALGCLVKDYFPEPVTVSWNSGALTSGVHTFPAVLQSSGLYSLSSVVTVPSSSLGTQTYICNVNHKPSNTKVDKKVEPKSCDKTHTCPPCPAPEAAGGPSVFLFPPKPKDTLMISRTPEVTCVVVDVSHEDPEVKFNWYVDGVEVHNAKTKPREEQYASTYRVVSVLTVLHQDWLNGKEYKCKVSNKALPAPIEKTISKAKGQPREPQVYTLPPSRCELTKNQVSLSCAVKGFYPSDIAVEWESNGQPENNYKTTPPVLDSDGSFFLVSKLTVDKSRWQQGNVFSCSVMHEALHNHYTQKSLSLSPDYKDDDDK
chain: EPKSSDKTHTCPPCPAPELLGGPSVFLFPPKPKDTLMISRTPEVTCVVVDVSHEDPEVKFNWYVDGVEVHNAKTKPREEQYNSTYRVVSVLTVLHQDWLNGKEYKCKVSNKALPAPIEKTISKAKGQPREPQVCTLPPSRDELTKNQVSLWCLVKGFYPSDIAVEWESNGQPENNYKTTPPVLDSDGSFFLYSKLTVDKSRWQQGNVFSCSVMHEALHNRYTQKSLSLSP
light: DIVMTQSPLSLPVTPGEPASISCRSSQSLVHSNRNTYLHWYQQKPGQAPRLLIYKVSNRFSGVPDRFSGSGSGTDFTLKISRVEAEDVGVYYCGQGTQPPYTFGQGTKLEIKRTVAAPSVFIFPPSDEQLKSGTASVVCLLNNFYPREAKVQWKVDNALQSGNSQESVTEQDSKDSTYSLSSTLTLSKADYEKHKVYACEVTHQGLSSPVTKSFNRGEC
notes: One-arm antibody; substitution position in Kabat numbering; also called L chain altered form, Kabat 94 V to P
B9: GLS3000 G91P one-amino acid altered one-arm antibody (CE115HA000-pE22Hh / Kn010G3 / GLS3000 G91P-kappa) (antibody, human IgG1, kappa, L234A L235A, N297A, name in Kabat numbering)
heavy: B8 heavy
chain: B8 chain
light: B8 light with G96P, P99V
notes: One-arm antibody; substitution position in Kabat numbering; also called L chain altered form, Kabat 91 G to P
B10: GLS3000 G89V one-amino acid altered one-arm antibody (CE115HA000-pE22Hh / Kn010G3 / GLS3000 G89V-kappa) (antibody, human IgG1, kappa, L234A L235A, N297A, name in Kabat numbering)
heavy: B8 heavy
chain: B8 chain
light: B8 light with G94V, P99V
notes: One-arm antibody; substitution position in Kabat numbering; also called L chain altered form, Kabat 89 G to V
B11: GLS3000 G91Y one-amino acid altered one-arm antibody (CE115HA000-pE22Hh / Kn010G3 / GLS3000 G91Y-kappa) (antibody, human IgG1, kappa, L234A L235A, N297A, name in Kabat numbering)
heavy: B8 heavy
chain: B8 chain
light: B8 light with G96Y, P99V
notes: One-arm antibody; substitution position in Kabat numbering; also called L chain altered form, Kabat 91 G to Y
B12: GLS3000 G89Y one-amino acid altered one-arm antibody (CE115HA000-pE22Hh / Kn010G3 / GLS3000 G89Y-kappa) (antibody, human IgG1, kappa, L234A L235A, N297A, name in Kabat numbering)
heavy: B8 heavy
chain: B8 chain
light: B8 light with G94Y, P99V
notes: One-arm antibody; substitution position in Kabat numbering; also called L chain altered form, Kabat 89 G to Y
B13: GLS3000 K74T one-amino acid altered one-arm antibody (CE115HA000-pE22Hh / Kn010G3 / GLS3000 K74T-kappa) (antibody, human IgG1, kappa, L234A L235A, N297A, name in Kabat numbering)
heavy: B8 heavy
chain: B8 chain
light: B8 light with K79T, P99V
notes: One-arm antibody; substitution position in Kabat numbering; also called L chain altered form, Kabat 74 K to T
B14: GLS3000 G89P one-amino acid altered one-arm antibody (CE115HA000-pE22Hh / Kn010G3 / GLS3000 G89P-kappa) (antibody, human IgG1, kappa, L234A L235A, N297A, name in Kabat numbering)
heavy: B8 heavy
chain: B8 chain
light: B8 light with G94P, P99V
notes: One-arm antibody; substitution position in Kabat numbering; also called L chain altered form, Kabat 89 G to P
B15: GLS3000 G91T one-amino acid altered one-arm antibody (CE115HA000-pE22Hh / Kn010G3 / GLS3000 G91T-kappa) (antibody, human IgG1, kappa, L234A L235A, N297A, name in Kabat numbering)
heavy: B8 heavy
chain: B8 chain
light: B8 light with G96T, P99V
notes: One-arm antibody; substitution position in Kabat numbering; also called L chain altered form, Kabat 91 G to T
B16: GLS3000 P95S one-amino acid altered one-arm antibody (CE115HA000-pE22Hh / Kn010G3 / GLS3000 P95S-kappa) (antibody, human IgG1, kappa, L234A L235A, N297A, name in Kabat numbering)
heavy: B8 heavy
chain: B8 chain
light: B8 light with P99V, P100S
notes: One-arm antibody; substitution position in Kabat numbering; also called L chain altered form, Kabat 95 P to S
B17: GLS3000 G89T one-amino acid altered one-arm antibody (CE115HA000-pE22Hh / Kn010G3 / GLS3000 G89T-kappa) (antibody, human IgG1, kappa, L234A L235A, N297A, name in Kabat numbering)
heavy: B8 heavy
chain: B8 chain
light: B8 light with G94T, P99V
notes: One-arm antibody; substitution position in Kabat numbering; also called L chain altered form, Kabat 89 G to T
B18: GLS3000 G89Q one-amino acid altered one-arm antibody (CE115HA000-pE22Hh / Kn010G3 / GLS3000 G89Q-kappa) (antibody, human IgG1, kappa, L234A L235A, N297A, name in Kabat numbering)
heavy: B8 heavy
chain: B8 chain
light: B8 light with G94Q, P99V
notes: One-arm antibody; substitution position in Kabat numbering; also called L chain altered form, Kabat 89 G to Q
B19: GLS3000 G89W one-amino acid altered one-arm antibody (CE115HA000-pE22Hh / Kn010G3 / GLS3000 G89W-kappa) (antibody, human IgG1, kappa, L234A L235A, N297A, name in Kabat numbering)
heavy: B8 heavy
chain: B8 chain
light: B8 light with G94W, P99V
notes: One-arm antibody; substitution position in Kabat numbering; also called L chain altered form, Kabat 89 G to W

The binders below were run against T1, human CD3ed (human, UniProt P07766 23-126; P04234 22-105, limits assumed) (assay: SPR Biacore T200, IgG captured on protein A, antigen as analyte, 25 C;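 also: antigens flowed over a CM3 chip for 120 s association, KD derived from ka and kd, running buffer (ACES, NaCl, Tween20, pH 7.4) served as blank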).
T1 construct: The construct injected as 'human CD3ed' in the Biacore assay is not defined; also called human CD3 epsilon/delta heterodimer
T1 sequence (P07766 23-126 limits assumed, chain 1 of 2): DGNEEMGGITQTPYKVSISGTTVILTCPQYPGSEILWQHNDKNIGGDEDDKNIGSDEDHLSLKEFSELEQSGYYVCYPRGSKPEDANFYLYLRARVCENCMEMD
T1 sequence (P04234 22-105 limits assumed, chain 2 of 2): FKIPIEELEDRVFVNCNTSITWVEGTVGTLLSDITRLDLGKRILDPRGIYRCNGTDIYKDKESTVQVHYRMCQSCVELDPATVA
Method: (§1) Sensor chip CM3 (GE Healthcare) was immobilized with an appropriate amount of sure protein A (GE Healthcare) by amine coupling. The selected antibodies were captured by the chip to allow interaction to human CD3ed, human CD137 and cyno CD137 as an antigen. The running buffer used was 20 mmol/l ACES, 150 mmol/l NaCl, 0.05% (w/v) Tween20, pH 7.4. All measurements were carried out at 25 degrees C. The antigens were diluted using the running buffer.
(§2) Diluted antigen solutions and the running buffer which is the blank were loaded at a flow rate of 30 micro L/min for 120 seconds to allow each of the antigens to interact with the antibody captured on the sensor chip. […] Next, to regenerate the sensor chip, 10 mmol/L glycine-HCl, pH 1.5 was loaded at a flow rate of 30 micro L/min for 30 seconds and 50 mmol/L NaOH was loaded at a flow rate 30 micro L/min for 30 seconds.
(§3) Kinetic parameters such as the association rate constant ka (1/Ms) and the dissociation rate constant kd (1/s) were calculated based on the sensorgrams obtained by the measurements. The dissociation constant KD(M) was calculated from these constants. Each parameter was calculated using the Biacore T200 Evaluation Software (GE Healthcare).

Binder	Kd [µM]	koff [s⁻¹]	kon [M⁻¹ s⁻¹]
B1	9.11	0.102	11200
B2	0.413	0.0216	52400
B3	0.209	0.00434	20800
B4	0.276	0.0157	56900
B5	0.331	0.01	30300
B6	0.217	0.0193	88900
B7	0.217	0.00785	36100

Target: T2, cynomolgus monkey CD137 (cynomolgus monkey, UniProt Q07011 24-186 (human entry), limits assumed)
T2 construct: Soluble analyte in the Biacore assay; also called cyno CD137
T2 chain: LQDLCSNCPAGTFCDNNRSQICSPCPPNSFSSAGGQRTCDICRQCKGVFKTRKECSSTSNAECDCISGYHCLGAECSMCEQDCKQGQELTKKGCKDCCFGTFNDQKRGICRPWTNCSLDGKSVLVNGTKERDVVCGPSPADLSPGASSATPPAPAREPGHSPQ
Test: as above
Method: as §1, §2, §3

Binder	Kd [µM]	koff [s⁻¹]	kon [M⁻¹ s⁻¹]
B1	205	0.00223	
B2	4.17	0.0101	2430
B3	11.1	0.00823	744
B4	3.12	0.00457	1470
B5	5.76	0.0286	4980
B6	6.2	0.00813	1310
B7	4.87	0.00593	1220

The binders below were run against T3, CD3 epsilon homodimer protein (UniProt P07766 23-126) (assay: SPR Biacore T200, CD3 epsilon homodimer immobilised on CM4, one-arm antibody as analyte, single-cycle kinetics; reference unaltered GLS3000 antibody;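 also: CD3 epsilon homodimer attached to the CM4 chip via amine coupling, measured at 25 °C with HBS-EP+ as running buffer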).
T3 construct: also called CD3 (CD3 epsilon)
T3 sequence (P07766 23-126): as the sequence (P07766 23-126 limits assumed, chain 1 of 2) above
Method: An appropriate amount of CD3 epsilon homodimer protein was immobilized onto Sensor chip CM4 (GE Healthcare Japan Corp.) by the amine coupling method. Then, the antibody having an appropriate concentration was injected thereto as an analyte and allowed to interact with the CD3 epsilon homodimer protein on the sensor chip. Then, the sensor chip was regenerated by the injection of 10 mmol/L glycine-HCl (pH 1.5). The assay was conducted at 25 degrees C., and HBS-EP+(GE Healthcare Japan Corp.) was used as a running buffer. […] Each parameter was calculated using Biacore T200 Evaluation Software (GE Healthcare Japan Corp.).
Specifically, when the amount of the GLS3000-containing antibody bound was defined as X and the amount of the L chain one-amino acid altered form bound was defined as Y, a value of Z (ratio of amounts bound)=Y/X was used.

Binder	dissociation constant KD(M) ratio of L chain altered form to GLS3000 [ratio]
B8	1.1
B9	23.1
B10	1.4
B11	33.8
B12	1.12
B13	0.85
B14	1.8
B15	39.9
B16	1.19
B17	1.1
B18	2.11
B19	2.2
